PMC12808100, “The non-catalytic DNA polymerase ε subunit is an NPF motif recognition protein” (Nature Communications, 2025)

Columns and labels:
[1] = target: His6-AviTag-MBP-TEV-POLE2, P56282; test: nHU titration, dot blot; settings: chain shown with the change
[2] = target: triple NPF motif peptide made from the DONSON sequence (human); test: native holdup (nHU) titration with western blot; biotinylated peptide bait on streptavidin resin, bait-saturated and control (biotin) resin mixed at various proportions; total Jurkat extract as analyte; 4 °C, 2 h; endogenous POLE and EPS15 left in the supernatant quantified by western blot; apparent dissociation constants

His6-AviTag-MBP-TEV-POLE2, P56282, sequence (P56282 whole entry): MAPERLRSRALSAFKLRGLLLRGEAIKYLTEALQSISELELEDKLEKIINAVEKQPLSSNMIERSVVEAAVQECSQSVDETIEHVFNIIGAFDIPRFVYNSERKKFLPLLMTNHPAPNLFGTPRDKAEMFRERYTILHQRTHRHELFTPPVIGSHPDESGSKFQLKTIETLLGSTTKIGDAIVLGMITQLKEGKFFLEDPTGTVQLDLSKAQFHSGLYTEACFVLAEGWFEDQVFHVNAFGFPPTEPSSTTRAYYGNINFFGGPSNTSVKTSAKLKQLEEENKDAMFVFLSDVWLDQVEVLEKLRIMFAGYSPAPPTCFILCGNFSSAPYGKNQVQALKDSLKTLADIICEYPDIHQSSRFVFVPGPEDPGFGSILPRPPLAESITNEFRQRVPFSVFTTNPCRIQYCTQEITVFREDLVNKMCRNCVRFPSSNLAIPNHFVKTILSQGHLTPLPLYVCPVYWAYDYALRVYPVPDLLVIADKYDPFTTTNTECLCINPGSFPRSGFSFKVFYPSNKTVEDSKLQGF

| Binder | Kd [1] | Kd [2] |
| --- | --- | --- |
| HA-TTF2, full length, intact NPF motifs, Q9UNY4 NPF to KAF (protein) MEEVRCPEHGTFCFLKTGVRDGPNKGKSFYVCRADTCSFVRATDIPVSHCLLHEDFVVELQGLLLPQDKKEYRLFFRCIRSKAEGKRWCGSIPWQDPDSKEHSVSNKSQHASETFHHSSNWLRKAFKVLDKNQEPALWKQLIKGEGEEKKADKKQREKGDQLFDQKKEQKPEMMEKDLSSGLVPKKKQSVVQEKKQEEGAEIQCEAETGGTHKRDFSEIKSQQCQGNELTRPSASSQEKSSGKSQDVQRESEPLREKVTQLLPQNVHSHNSISKPQKGGPLNKEYTNWEAKETKAKDGPSIQATQKSLPQGHFQERPETHSVPAPGGPAAQAAPAAPGLSLGEGREAATSSDDEEEDDVVFVSSKPGSPLLFDSTLDLETKENLQFPDRSVQRKVSPASGVSKKVEPSDPVARRVYLTTQLKQKKSTLASVNIQALPDKGQKLIKQIQELEEVLSGLTLSPEQGTNEKSNSQVPQQSHFTKTTTGPPHLVPPQPLPRRGTQPVGSLELKSACQVTAGGSSQCYRGHTNQDHVHAVWKITSEAIGQLHRSLESCPGETVVAEDPAGLKVPLLLHQKQALAWLLWRESQKPQGGILADDMGLGKTLTMIALILTQKNQEKKEEKEKSTALTWLSKDDSCDFTSHGTLIICPASLIHHWKNEVEKRVNSNKLRVYLYHGPNRDSRARVLSTYDIVITTYSLVAKEIPTNKQEAEIPGANLNVEGTSTPLLRIAWARIILDEAHNVKNPRVQTSIAVCKLQACARWAVTGTPIQNNLLDMYSLLKFLRCSPFDEFNLWRSQVDNGSKKGGERLSILTKSLLLRRTKDQLDSTGRPLVILPQRKFQLHHLKLSEDEETVYNVFFARSRSALQSYLKRHESRGNQSGRSPNNPFSRVALEFGSEEPRHSEAADSPRSSTVHILSQLLRLRQCCCHLSLLKSALDPMELKGEGLVLSLEEQLSALTLSELRDSEPSSTVSLNGTFFKMELFEGMRESTKISSLLAELEAIQRNSASQKSVIVSQWTNMLKVVALHLKKHGLTYATIDGSVNPKQRMDLVEAFNHSRGPQVMLISLLAGGVGLNLTGGNHLFLLDMHWNPSLEDQACDRIYRVGQQKDVVIHRFVCEGTVEEKILQLQEKKKDLAKQVLSGSGESVTKLTLADLRVLFGI | 1.1 µM |  |
| EPS15 (natural protein) MAAAAQLSLTQLSSGNPVYEKYYRQVDTGNTGRVLASDAAAFLKKSGLPDLILGKIWDLADTDGKGILNKQEFFVALRLVACAQNGLEVSLSSLNLAVPPPRFHDTSSPLLISGTSAAELPWAVKPEDKAKYDAIFDSLSPVNGFLSGDKVKPVLLNSKLPVDILGRVWELSDIDHDGMLDRDEFAVAMFLVYCALEKEPVPMSLPPALVPPSKRKTWVVSPAEKAKYDEIFLKTDKDMDGFVSGLEVREIFLKTGLPSTLLAHIWSLCDTKDCGKLSKDQFALAFHLISQKLIKGIDPPHVLTPEMIPPSDRASLQKNIIGSSPVADFSAIKELDTLNNEIVDLQREKNNVEQDLKEKEDTIKQRTSEVQDLQDEVQRENTNLQKLQAQKQQVQELLDELDEQKAQLEEQLKEVRKKCAEEAQLISSLKAELTSQESQISTYEEELAKAREELSRLQQETAELEESVESGKAQLEPLQQHLQDSQQEISSMQMKLMEMKDLENHNSQLNWCSSPHSILVNGATDYCSLSTSSSETANLNEHVEGQSNLESEPIHQESPARSSPELLPSGVTDENEVTTAVTEKVCSELDNNRHSKEEDPFNVDSSSLTGPVADTNLDFFQSDPFVGSDPFKDDPFGKIDPFGGDPFKGSDPFASDCFFRQSTDPFATSSTDPFSAANNSSITSVETLKHNDPFAPGGTVVAASDSATDPFASVFGNESFGGGFADFSTLSKVNNEDPFRSATSSSVSNVVITKNVFEETSVKSEDEPPALPPKIGTPTRPCPLPPGKRSINKLDSPDPFKLNDPFQPFPGNDSPKEKDPEIFCDPFTSATTTTNKEADPSNFANFSAYPSEEDMIEWAKRESEREEEQRLARLNQQEQEDLELAIALSKSEISEA |  | 0.8 µM |
| HA-ERCC6L, full length, intact NPF motif, Q2NKX8 NPF to KAF (protein) MEASRRFPEAEALSPEQAAHYLRYVKEAKEATKNGDLEEAFKLFNLAKDIFPNEKVLSRIQKIQEALEELAEQGDDEFTDVCNSGLLLYRELHNQLFEHQKEGIAFLYSLYRDGRKGGILADDMGLGKTVQIIAFLSGMFDASLVNHVLLIMPTNLINTWVKEFIKWTPGMRVKTFHGPSKDERTRNLNRIQQRNGVIITTYQMLINNWQQLSSFRGQEFVWDYVILDEAHKIKTSSTKSAICARAIPASNRLLLTGTPIQNNLQELWSLFDFACQGSLLGTLKTFKMEYENPITRAREKDATPGEKALGFKISENLMAIIKPYFLRRTKEDVQKKKSSNPEARLNEKNPDVDAICEMPSLSRKNDLIIWIRLVPLQEEIYRKFVSLDHIKELLMETRSPLAELGVLKKLCDHPRLLSARACCLLNLGTFSAQDGNEGEDSPDVDHIDQVTDDTLMEESGKMIFLMDLLKRLRDEGHQTLVFSQSRQILNIIERLLKNRHFKTLRIDGTVTHLLEREKRINLFQQNKDYSVFLLTTQVGGVGLTLTAATRVVIFDPSWNPATDAQAVDRVYRIGQKENVVVYRLITCGTVEEKIYRRQVFKDSLIRQTTGEKKNPFRYFSKQELRELFTIEDLQNSVTQLQLQSLHAAQRKSDIKLDEHIAYLQSLGIAGISDHDLMYTCDLSVKEELDVVEESHYIQQRVQKAQFLVEFESQNKEFLMEQQRTRNEGAWLREPVFPSSTKKKCPKLNKPQPQPSPLLSTHHTQEEDISSKMASVVIDDLPKEGEKQDLSSIKVNVTTLQDGKGTGSADSIATLPKGFGSVEELCTNSSLGMEKSFATKNEAVQKETLQEGPKQEALQEDPLESFNYVLSKSTKADIGPNLDQLKDDEILRHCNPWPIISITNESQNAESNVSIIEIADDLSASHSALQDAQASEAKLEEEPSASSPQYACDFNLFLEDSADNRQNFSSQSLEHVEKENSLCGSAPNSRAGFVHSKTCLSWEFSEKDDEPEEVVVKAKIRSKARRIVSDGEDEDDSFKDTSSIKAFNTSLFQFSSVKQFDASTPKNDISPPGRFFSSQIPSSVNKSMNSRRSLASRRSLINMVLDHVEDMEERLDDSSEAKGPEDYPEEGVEESSGEASKYTEEDPSGETLSSENKSSWLMTSKPSALAQETSLGAPEPLSGEQLVGSPQDKAAEATNDYETLVKRGKELKECGKIQEALNCLVKALDIKSADPEVMLLTLSLYKQLNNN | 23 µM |  |
| HA-WDHD1, full length, intact NPF motif, O75717 NPF to KAF (protein) MPATRKPMRYGHTEGHTEVCFDDSGSFIVTCGSDGDVRIWEDLDDDDPKFINVGEKAYSCALKSGKLVTAVSNNTIQVHTFPEGVPDGILTRFTTNANHVVFNGDGTKIAAGSSDFLVKIVDVMDSSQQKTFRGHDAPVLSLSFDPKDIFLASASCDGSVRVWQISDQTCAISWPLLQKCNDVINAKSICRLAWQPKSGKLLAIPVEKSVKLYRRESWSHQFDLSDNFISQTLNIVTWSPCGQYLAAGSINGLIIVWNVETKDCMERVKHEKGYAICGLAWHPTCGRISYTDAEGNLGLLENVCDPSGKTSSSKVSSRVEKDYNDLFDGDDMSNAGDFLNDNAVEIPSFSKGIINDDEDDEDLMMASGRPRQRSHILEDDENSVDISMLKTGSSLLKEEEEDGQEGSIHNLPLVTSQRPFYDGPMPTPRQKPFQSGSTPLHLTHRFMVWNSIGIIRCYNDEQDNAIDVEFHDTSIHHATHLSNTLNYTIADLSHEAILLACESTDELASKLHCLHFSSWDSSKEWIIDLPQNEDIEAICLGQGWAAAATSALLLRLFTIGGVQKEVFSLAGPVVSMAGHGEQLFIVYHRGTGFDGDQCLGVQLLELGKKKKQILHGDPLPLTRKSYLAWIGFSAEGTPCYVDSEGIVRMLNRGLGNTWTPICNTREHCKGKSDHYWVVGIHENPQQLRCIPCKGSRFPPTLPRPAVAILSFKLPYCQIATEKGQMEEQFWRSVIFHNHLDYLAKNGYEYEESTKNQATKEQQELLMKMLALSCKLEREFRCVELADLMTQNAVNLAIKYASRSRKLILAQKLSELAVEKAAELTATQVEEEEEEEDFRKKLNAGYSNTATEWSQPRFRNQVEEDAEDSGEADDEEKPEIHKPGQNSFSKSTNSSDVSAKSGAVTFSSQGRVKAFKVSASSKEPAMSMNSARSTNILDNMGKSSKKSTALSRTTNNEKSPIIKPLIPKPKPKQASAASYFQKRNSQTNKTEEVKEENLKNVLSETPAICPPQNTENQRPKTGFQMWLEENRSNILSDNPDFSDEADIIKEGMIRFRVLSTEERKVWANKAKGETASEGTEAKKRKRVVDESDETENQEEKAKENLNLSKKQKPLDFSTNQKLSAFAFKQE | 32 µM |  |
